From patent US20220088148A1 (HANMI PHARM, published 2022)
Bridges are numbered along the chain shown (N, C = ends). Where no end group is shown, it is not given here. [ ]: non-standard residue; d: D form. The star is where a group is joined. Acetyl(2-(4-imidazolyl)) = O=C(Cc1c[nH]cn1)*; Aib = CC(C)(N)C(=O)O

Key:
Test in all cases: cell-based or functional assay
human GLP-1 receptor = human GLP-1 receptor (human, UniProt P43220 24-463)
human GCG receptor = human GCG receptor (human, UniProt P47871 26-477)
human GIP receptor = biological target: T1, human GIP receptor (human, UniProt P48546 22-466)
T1 sequence (looked up): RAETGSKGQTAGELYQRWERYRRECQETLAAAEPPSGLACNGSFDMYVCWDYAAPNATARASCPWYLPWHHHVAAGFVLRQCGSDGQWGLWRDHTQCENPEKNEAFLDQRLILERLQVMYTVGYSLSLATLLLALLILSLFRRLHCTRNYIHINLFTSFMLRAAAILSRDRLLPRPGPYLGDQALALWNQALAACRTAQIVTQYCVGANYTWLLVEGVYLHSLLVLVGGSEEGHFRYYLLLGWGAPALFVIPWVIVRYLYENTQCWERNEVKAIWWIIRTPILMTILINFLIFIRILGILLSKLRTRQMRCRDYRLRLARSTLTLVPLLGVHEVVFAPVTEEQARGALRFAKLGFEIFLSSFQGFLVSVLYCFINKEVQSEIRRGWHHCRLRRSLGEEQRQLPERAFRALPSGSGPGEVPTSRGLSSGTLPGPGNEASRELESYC

Chain of human GCG receptor (P47871 26-477): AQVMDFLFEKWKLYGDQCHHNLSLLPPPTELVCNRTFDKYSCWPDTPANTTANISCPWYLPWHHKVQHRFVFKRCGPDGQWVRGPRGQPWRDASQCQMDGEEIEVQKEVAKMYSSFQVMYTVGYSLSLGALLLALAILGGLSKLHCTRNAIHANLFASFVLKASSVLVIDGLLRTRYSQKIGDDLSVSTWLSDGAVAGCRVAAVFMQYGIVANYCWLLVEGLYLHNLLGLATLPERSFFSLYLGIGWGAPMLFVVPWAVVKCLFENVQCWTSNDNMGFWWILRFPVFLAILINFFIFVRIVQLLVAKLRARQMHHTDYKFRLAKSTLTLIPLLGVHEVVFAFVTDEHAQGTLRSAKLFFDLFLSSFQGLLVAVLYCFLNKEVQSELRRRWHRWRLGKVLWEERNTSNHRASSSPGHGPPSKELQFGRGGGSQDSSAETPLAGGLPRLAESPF

Row | Binder | In vitro activity (%) vs. GLP-1, cAMP EC50 (human GLP-1 receptor) | In vitro activity (%) vs. Glucagon, cAMP EC50 (human GCG receptor) | In vitro activity (%) vs. GIP, cAMP EC50 (human GIP receptor)
1 | [Acetyl(2-(4-imidazolyl))]GQGTFTSDLSKQMDSEAQQLFIEWLKNGGPSSGAPPPSHG [triple agonist of SEQ ID NO: 16] | 2.1% | < 0.1% | < 0.1%
2 | [Acetyl(2-(4-imidazolyl))]GEGTFISDYSIQLDEIAVQDFVEWLLAQKPSSGAPPPSHG [triple agonist of SEQ ID NO: 13] | < 0.1% | < 0.1% | < 0.1%
3 | H[Aib]QGTFTSDVSSYLDGQAQKEFIAWLVKGC [triple agonist of SEQ ID NO: 2] | 5.9% | < 0.1% | < 0.1%
4 | Y[Aib]QGTFTSDYSKALDEKAAKDFVNWLLDHHPSSGQPPPSC (bridge 16-20; ends not checked) [triple agonist of SEQ ID NO: 99] | 20.9% | 14.9% | 57.7%
5 | Y[Aib]QGTFTSDYSKALDEKAAKEFVQWLLDQHPSSGQPPPSC (bridge 16-20) [triple agonist of SEQ ID NO: 100] | 42.2% | 12.7% | 118%
6 | {Acetyl(2-(4-imidazolyl))}-[Aib]QGTFTSDYSKYLDEKRQKEFVNWLLAQKC (bridge 15-19) [triple agonist of SEQ ID NO: 93] | 5.7% | 0.3% | 0.7%
7 | {Acetyl(2-(4-imidazolyl))}-[Aib]QGTFTSDYSIAMDEIHQKDFVNWLLNTKC (bridge 15-19) [triple agonist of SEQ ID NO: 94] | 0.5% | < 0.1% | < 0.1%
8 | [Acetyl(2-(4-imidazolyl))]GEGTFTSDLSKYLDSRRQQLFVQWLKAGGPSSGAPPPSHG [triple agonist of SEQ ID NO: 11] | 1.4% | < 0.1% | < 0.1%
9 | [Acetyl(2-(4-imidazolyl))]GQGTFTSDLSIQYDSEHQRDFIEWLKDTGPSSGAPPPSHG [triple agonist of SEQ ID NO: 19] | < 0.1% | < 0.1% | < 0.1%
10 | Y[Aib]QGTFTSDYSKYLDECRAKEFVQWLLAQKGKKNDWKHNIT (bridge 16-20) [triple agonist of SEQ ID NO: 23] | 4.01% | 9.3% | < 0.1%
11 | Y[Aib]QGTFTSDYSKYLDEKRAKEFVQWLLCHHPSSGQPPPS (bridge 16-20) [triple agonist of SEQ ID NO: 95] | 2.1% | 0.4% | < 0.1%
12 | Y[Aib]QGTFTSDYSKALDEKAAKDFVNWLLDQHPSSGQPPPSC (bridge 16-20; ends not checked) [triple agonist of SEQ ID NO: 102] | 23.3% | 29.5% | 58%
13 | Y[Aib]QGTFTSDYSKYLDECRAKEFVQWLLDHHPSSGQPPPS (bridge 16-20) [triple agonist of SEQ ID NO: 21] | 17.8% | 267% | 22.7%
14 | [Acetyl(2-(4-imidazolyl))]GQGTFTSDLSKQMDEERAREFIEWLLAQKPSSGAPPPSHG [triple agonist of SEQ ID NO: 17] | 0.2% | < 0.1% | < 0.1%
15 | Y[Aib]QGTFTSDYSKYLDEKRAKEFVQWLLDHCPSSGQPPPS (bridge 16-20) [triple agonist of SEQ ID NO: 96] | 34.4% | 195% | 5.2%
16 | Y[Aib]QGTFTSDYSKCLDEKRAKEFVQWLLDHHPSSGQPPPS (bridge 16-20) [triple agonist of SEQ ID NO: 22] | 20.1% | 140% | 59.7%
17 | [Acetyl(2-(4-imidazolyl))]GEGTFISDLSKYMDEQAVQLFVEWLMAGGPSSGAPPPSHG [triple agonist of SEQ ID NO: 12] | 0.4% | < 0.1% | < 0.1%
18 | [Acetyl(2-(4-imidazolyl))]GQGTFTSDYSIQLDEIAVRDFVEWLKNGGPSSGAPPPSHG [triple agonist of SEQ ID NO: 14] | 28% | < 0.1% | < 0.1%
19 | Y[Aib]QGTFTSDYSKALDEKAAKEFVNWLLDHHPSSGQPPPSC (bridge 16-20; ends not checked) [triple agonist of SEQ ID NO: 98] | 28.1% | 8.2% | 47.1%
20 | {Acetyl(2-(4-imidazolyl))}-[Aib]EGTFTSDYSIAMDEIHQKDFVDWLLAEKC (bridge 15-19) [triple agonist of SEQ ID NO: 91] | 31.9% | 16.8% | 0.3%
21 | [Acetyl(2-(4-imidazolyl))]GQGTFTSDLSKQMDSERAREFIEWLKNTGPSSGAPPPSHG [triple agonist of SEQ ID NO: 18] | < 0.1% | < 0.1% | < 0.1%
22 | Y[Aib]QGTFTSDYSKYLDEKRAKEFVQWLLDCHPSSGQPPPS (bridge 16-20; ends not checked) [triple agonist of SEQ ID NO: 97] | 10.5% | 62.8% | 2.6%
23 | [Acetyl(2-(4-imidazolyl))]GQGTFTSDLSIQYEEEAQQDFVEWLKDTGPSSGAPPPSHG [triple agonist of SEQ ID NO: 20] | < 0.1% | < 0.1% | < 0.1%
24 | {Acetyl(2-(4-imidazolyl))}-[Aib]QGTFTSDYSIAMDEIHQKDFVNWLLAQKC (bridge 15-19) [triple agonist of SEQ ID NO: 92] | 0.8% | < 0.1% | 0.4%
25 | H[Aib]QGTFTSDVSSYLLGQAAKQFIAWLVKGGGPSSGAPPPSC [triple agonist of SEQ ID NO: 3] | 1.8% | < 0.1% | < 0.1%
26 | Y[Aib]QGTFTSDYSKALDEKAAKEFVNWLLDQHPSSGQPPPSC (bridge 16-20) [triple agonist of SEQ ID NO: 101] | 23.2% | 13.9% | 40.1%
27 | H[Aib]QGTFTSDVSKYLDGQAAQEFVAWLLAGGGPSSGAPPPSC [triple agonist of SEQ ID NO: 10] | 46% | < 0.1% | < 0.1%
